Measured values from the supplement of paper PMC9170038.

Test system: MS2 coat protein
Assay: apparent KD of MS2 coat protein; designed switch direction (-1 OFF switch, 1 ON switch): -1; higher = weaker reporter binding
Summary of the method: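 Normalised cluster fluorescence was curve-fitted, and each design's median over clusters is its apparent KD. Before this, SNAP-549-labelled MS2 coat protein was titrated from 0.7 or 1.5 nM, doubling to 3 µM, over RNA switches transcribed on Illumina chips by stalled E. coli RNA polymerase. Titrations had no input, 200 uM small-molecule ligand, or an oligonucleotide input, and steps lasted 0.8–1.5 h (lowest) to 10–20 min (highest).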

[1] = Eterna round: R95, input ligand: microRNA oligo, concentration not stated
[2] = Eterna round: R95, input ligand: FMN 200 uM
[3] = Eterna round: R95, input ligand: none
[4] = input ligand: microRNA oligo, concentration not stated

| Sequence | apparent KD of MS2 coat protein [1] | apparent KD of MS2 coat protein [2] | apparent KD of MS2 coat protein [3] | apparent KD of MS2 coat protein (input ligand: FMN 200 uM) | apparent KD of MS2 coat protein [4] | apparent KD of MS2 coat protein (input ligand: none) |
| --- | --- | --- | --- | --- | --- | --- |
| AAUAACAGAGGAUAUACUGUUUUAUGUGUUUAUUGUUUUAAACAUGAGGAUCACCCAUGUAGAAGGCUGAAUAA [JMF 17] (puzzle: Exclusion 2) | 23.4 nM | – | – | – | – | – |
| AAUAACAGAGGAUAUACUGUUUUAUGUGUUUAUUGUUUUGAACAUGAGGAUCACCCAUGUAGAAGGCUGAAUAA [JMF 25] (puzzle: Exclusion 2) | 20.1 nM | – | – | – | – | – |
| AAUAAGAGAGGAUAUACUAAAAUAUGAAUAAAAUAAAUAAAACAUGAGGAUCACCCAUGUAGAAGGCUCAAUAA [JMF's Not so obvious solution 6] (puzzle: Exclusion 2) | 19.2 nM | 23.1 nM | 24.7 nM | – | – | – |
| AAUAAUAAGGAGGAUAUCGUAUCGGAAACGAUACGAGAAGGCUUAACAUGAGGAUCACCCAUGUUCCUCAAUAA [Fiskers Ex 6 - 22] (puzzle: Exclusion 6) | 33.5 nM | – | – | – | – | – |
| AAUAAUCAUGUAGGAUAUGCGUGGCAAAGCUAUGCAGAAGGACAUGAGGAUCACCCAUGUUCUAGCGUCUGCGUACAGAUGCUA [Mat - Exclusion NG 1 - Mod of JL - D80] (Eterna round: R96, puzzle: Exclusion NG 1) | – | – | – | 246 nM | 29.1 nM | 37.2 nM |
| AAUAGCAAGUAAGAUCCUAACAUGAGGAUCACCCAUGUGCUCGUCUUAUAAAGUACUAUCACGAAAGUGAUAGUACA [Sensor 3, v1 - 47] (puzzle: Sensor v3, turn-off variant 1) | 51.4 nM | 64.8 nM | 74.3 nM | – | – | – |
| AAUAUACAUGUAGGAUAUCUGCACGUUUAGUGCAGAGAAGGACAUGAGGAUCACCCAUGUAAUUAAGAUCAAUUAUUAAAUAUU [ENG1/3-B2] (Eterna round: R96, puzzle: Exclusion NG 1) | – | – | – | 437 nM | 39.6 nM | 63 nM |
| AAUCCACAUGAGGAUCACCCAUGUGAGGAUAUGAUACUAUGUACUUCGGUACAUAGUAUCAGAAGGCACAAAGG [Ex1-3: 52] (puzzle: Exclusion 1) | 56 nM | – | – | – | – | – |
| AAUCGAUCGCCGUACGCACACAUGAGGAUCACCCAUGUAGCUGAGGAUAUCCACCCAUAACGGUCGGAGAAGGCGGGACUGGGA [Eraananbi] (Eterna round: R96, puzzle: Exclusion NG 3) | – | – | – | 30.8 nM | 11.3 nM | 19.1 nM |
| AAUGAUUGACGAGGAUAUUGUGGUGAAACACGACGAGAAGGCGUAUGUCACAUGAGGAUCACCCAUGUGAGCUUUGUGGAUAUA [Ex NG1 #68] (Eterna round: R96, puzzle: Exclusion NG 1) | – | – | – | 34.7 nM | 24.1 nM | 34.1 nM |
| AAUGUCUGAGGAUAUCGAAUAGUGUACAUGAGGAUCACCCAUGUUUUUAUUAGUAUAUUACGAGAAGGCAGUGGAA [JR_E5_Sub086] (puzzle: Exclusion 5) | 16.1 nM | – | – | – | – | – |
| AAUUAAUAUCAGGAUAUGACUUUCGAUAUUUAGUCAGAAGGGAUGACAUGAGGAUCACCCAUGUGAUCAAUUAA [JR_Ex6_Sub027] (Eterna round: R97, puzzle: Exclusion 6) | – | – | – | 101 nM | – | 37.7 nM |
| AAUUAGCAAGCAAGAUCCCACAUGAGGAUCACCCAUGUGCUCGUCUUAUAAGGUACUGUGACGAAAGUCACGGUACC [Mat - Sensor, turn-off var - Eli Mod - D50] (Eterna round: R97, puzzle: Sensor, turn-off variant 1) | – | – | – | 50.2 nM | – | 54.8 nM |
| AAUUAGCAAGCGAGAUCCCACAUGAGGAUCACCCAUGUGCUCGUCUUAUAAGGUACUGUGACGAUAGUCACGGUACC [Mat - Sensor, turn-off var - Eli Mod - D20] (Eterna round: R97, puzzle: Sensor, turn-off variant 1) | – | – | – | 15.6 nM | – | 13.5 nM |
| AAUUAGCAAGCGAGAUCCCACAUGAGGAUCACCCAUGUGCUCGUCUUAUAUAAGGUACUGUACGAAAGUACGGUACC [Mat - Sensor, turn-off var - Eli Mod - D31] (Eterna round: R97, puzzle: Sensor, turn-off variant 1) | – | – | – | 16.4 nM | – | 16.4 nM |
| AAUUCACAUGAGGAUCACCCAUGUCAGGAUAUGGUUUCACGUGUUUCUGUGCUUGAGGCCAGAAGGGACAGCUA (puzzle: Exclusion 1) | 50.3 nM | – | – | – | – | – |
| AAUUCACAUGAGGAUCACCCAUGUGAGGAUAUGGAUUCGCUGGCCGUAGCCAGUGGAUCCAGAAGGCGCGUGAU [JL-ex1-4.27] (Eterna round: R97, puzzle: Exclusion 1) | – | – | – | 60.5 nM | – | 46.8 nM |
| AAUUGGUUAGGAUAUCGGGAAUAUCACAUGAGGAUCACCCAUGUGACCUUUAUGGUGUCAUGAGAAGGGACGCGGA [Eternabot (L1) Solution 11] (Eterna round: R97, puzzle: Exclusion 5) | – | – | – | 27.9 nM | – | 24.5 nM |

| Sequence | apparent KD of MS2 coat protein [1] | apparent KD of MS2 coat protein [2] | apparent KD of MS2 coat protein [3] | apparent KD of MS2 coat protein (input ligand: FMN 200 uM) | apparent KD of MS2 coat protein [4] | apparent KD of MS2 coat protein (input ligand: none) |
| --- | --- | --- | --- | --- | --- | --- |
| AAUUUAACAUAGGAUAUCGAAUUUAUCAUUUAACGAGAAGGAUGAACAUGAGGAUCACCCAUGUGGUAUCAUGG [Mat - Exclusion 6 - JL Mod - D2] (puzzle: Exclusion 6) | 373 nM | 155 nM | 180 nM | – | – | – |
| AAUUUAACAUAGGAUAUCGAAUUUAUUAUUUAACGAGAAGGAUGAACAUGAGGAUCACCCAUGUGGUAUCAUGG [Mat - Exclusion 6 - JL Mod - D22] (puzzle: Exclusion 6) | 109 nM | 100 nM | 174 nM | – | – | – |
| AAUUUACAUGAGGAUCACCCAUGUCAGGAUAUGGUUUUAUUUUUUUCUUUUCUUGAUUCCAGAAGGGACAGUUA (puzzle: Exclusion 1) | 81.6 nM | – | – | – | – | – |
| AAUUUACAUGAGGAUCACCCAUGUGAGGAUAUAUAAAUAUAUAUGUUAUUGUAUGUUUGUAGAAGGCGCGUGAU [JR_Exc1_Sub031] (Eterna round: R97, puzzle: Exclusion 1) | – | – | – | 145 nM | – | 83.3 nM |
| AAUUUACAUGAGGAUCACCCAUGUGAGGAUAUAUGUAAACAAUUUUUAUUCAUCAAACAUAGAAGGCGCGUGAU [JR_Exc1_Sub044] (Eterna round: R97, puzzle: Exclusion 1) | – | – | – | 41.3 nM | – | 42.6 nM |
| AAUUUACAUGAGGAUCACCCAUGUGAGGAUAUAUGUUUUAAUUUUUUUUUUUUUUUACAUAGAAGGCGCGUGAU [JR_Exc1_Sub046] (Eterna round: R97, puzzle: Exclusion 1) | – | – | – | 51.7 nM | – | 58.5 nM |
| AAUUUACAUGAGGAUCACCCAUGUGAGGAUAUUGUAUAUUUAUAGAAAUGUGGGUGUGCAAGAAGGCACAUAGG [Alacar 2] (Eterna round: R97, puzzle: Exclusion 1) | – | – | – | 134 nM | – | 63.6 nM |
| AAUUUUUGAUACCUUUAAUACAUGAGGAUCACCCAUGUUAUCGAGGAUAUGUAGAUGAAAUGAGAACAGAAGGCGAAGUAAGAG [JR_ExcNG3_Sub099] (Eterna round: R96, puzzle: Exclusion NG 3) | – | – | – | 41.5 nM | 3.24 nM | 15.6 nM |
| ACAAAGUGAGGAUAUACUAAAACCCUCAUACCCAAAAGGGAACAUGAGGAUCACCCAUGUAGAAGGCACAUAAU [Esmainleor] (puzzle: Exclusion 2) | 100 nM | 549 nM | 92.3 nM | – | – | – |
| ACAACCAGAGGAUAUGCGCAUAGAUCAGACUUUGUUUCUGAACAUGAGGAUCACCCAUGUAGAAGGCUGUAACC [Ex2 #79] (Eterna round: R97, puzzle: Exclusion 2) | – | – | – | 27.7 nM | – | 28.7 nM |
| ACAAGACAUGAGGAUCACCCAUGUGGUCGGAUGUCAAAGACCGAGGAUAUCAGCGACUGCGCCGCUGAGAAGGCGGAUGGUGCU [Telaed] (Eterna round: R96, puzzle: Exclusion NG 3) | – | – | – | 1260 nM | 476 nM | 652 nM |
| ACAAGAGCGGAAGGAUAUUUUACAUGAGGAUCACCCAUGUAAUAAAUGAGGAUCACGGAUGUAGUAAAGAAGGUCCGGAUAAGA [Ostracism 2 - Jieux - Exclusion NG 2] (Eterna round: R96, puzzle: Exclusion NG 2) | – | – | – | – | 18.4 nM | – |
| ACAAGCUUUUAGAUUCUUAACAUGAGGAUCACCCAUGUGCUCGUCUUAUUGGGCCCGGGCCCGCCGGGCCCGGGCCC (Eterna round: R97, puzzle: Sensor, turn-off variant 1) | – | – | – | 39.2 nM | – | 42.6 nM |
| ACAAGCUUUUGGAUUUUCAACAUGAGGAUCACCCAUGUUCGUCUUAUGCGAGUGCGAGUGCGGUGUACUCGUAUUAG [JL TOV1 3.86 sellena mod] (Eterna round: R97, puzzle: Sensor, turn-off variant 1) | – | – | – | 25.3 nM | – | 24.4 nM |
| ACAAGCUUUUUGCAACAAGCAUUAAACUCUCAGAUCGUAACAUGAGGAUCACCCAUGUAAGUUUUAUGACGUCUUAU [JR_SV3TOV2_Sub095] (puzzle: Sensor v3, turn-off variant 2) | 18.1 nM | 20.8 nM | 22.9 nM | – | – | – |
| ACACAAAGCUAGGAUAUCCAGGCAUCUUCGGCCGGAGAAGGAGCCACAUGAGGAUCACCCAUGUGGUGAUCCUG [eternacac ex6r4 sub5] (Eterna round: R97, puzzle: Exclusion 6) | – | – | – | 70.9 nM | – | 50.6 nM |
| ACACAGCAAGGAUAUACAUGAGGAUCACCCAUGUGGCGGCCGUUACGGUAGGACUAGUGUAGAAGGUGCAUUGG [EX3 #33] (Eterna round: R97, puzzle: Exclusion 3) | – | – | – | 167 nM | – | 210 nM |
